Measured values from patent US20220402995A1 (TOSOH, published 2022).
Numbering of substitutions follows the chain as printed.

B1: AAV-binding protein No. 58 (AVR2 + Ile319Phe) (receptor)
chain: MGSAGESVQFTLPKNEVQLNAYVLQEPPKGETCTYDWQLITHPRDYSGEMEGKHSQILKLSKLTPGLYEFKVIVEGQNAHSEGYVNVTVKPEPRKNRPPIAIVSPQFQEISLPTTSTVIDGSQSTDDDKIVQYHWEELKGPLREEKISEDTAILKLSKLVPGNYTFSLTVVDSDGATNSTTANLTVNKAVDHHHHHH
B2: AAV-binding protein No. 59 (AVR2 + Ile319Asn) (receptor)
chain: B1 chain with F10N
B3: AAV-binding protein No. 60 (AVR2 + Lys323Glu) (receptor)
chain: B1 chain with F10I, K14E
B4: AAV-binding protein No. 61 (AVR2 + Leu328Gln) (receptor)
chain: B1 chain with F10I, L19Q
B5: AAV-binding protein No. 62 (AVR2 + Leu328Pro) (receptor)
chain: B1 chain with F10I, L19P
B6: AAV-binding protein No. 63 (AVR2 + Tyr331His) (receptor)
chain: B1 chain with F10I, Y22H
B7: AAV-binding protein No. 64 (AVR2 + Val332Ala) (receptor)
chain: B1 chain with F10I, V23A
B8: AAV-binding protein No. 65 (AVR2 + Val332Glu) (receptor)
chain: B1 chain with F10I, V23E
B9: AAV-binding protein No. 66 (AVR2 + Leu333Pro) (receptor)
chain: B1 chain with F10I, L24P
B10: AAV-binding protein No. 67 (AVR2 + Pro337Gln) (receptor)
chain: B1 chain with F10I, P28Q
B11: AAV-binding protein No. 68 (AVR2 + Tyr(Cys)342Arg) (receptor)
chain: B1 chain with F10I, C33R
notes: Cys342 of AVR2 replaced by Arg
B12: AAV-binding protein No. 69 (AVR2 + Thr350Ser) (receptor)
chain: B1 chain with F10I, T41S
B13: AAV-binding protein No. 70 (AVR2 + Val383Ala) (receptor)
chain: B1 chain with F10I, V74A
B14: AAV-binding protein No. 71 (AVR2 + His389Asp) (receptor)
chain: B1 chain with F10I, H80D
B15: AAV-binding protein No. 72 (AVR2 + Val394Ala) (receptor)
chain: B1 chain with F10I, V85A
B16: AAV-binding protein No. 73 (AVR2 + Val396Ala) (receptor)
chain: B1 chain with F10I, V87A
B17: AAV-binding protein No. 74 (AVR2 + Ser476Gly) (receptor)
chain: B1 chain with F10I, S167G
B18: AAV-binding protein No. 76 (AVR2 + Asn492Asp) (receptor)
chain: B1 chain with F10I, N183D
B19: AAV-binding protein No. 77 (AVR2 + Leu321Pro, Ile409Val) (receptor)
chain: B1 chain with F10I, L12P, I100V
B20: AAV-binding protein No. 113 (AVR8g + Ile366Thr) (receptor)
chain: B1 chain with V8D, F10I, K53E, I57T, K62N, K90E, S167R, N178D
B21: AAV-binding protein No. 114 (AVR8g + Leu372Pro) (receptor)
chain: B1 chain with V8D, F10I, K53E, K62N, L63P, K90E, S167R, N178D
B22: AAV-binding protein No. 115 (AVR8g + Leu372Gln) (receptor)
chain: B1 chain with V8D, F10I, K53E, K62N, L63Q, K90E, S167R, N178D
B23: AAV-binding protein No. 116 (AVR8g + Thr373Ala) (receptor)
chain: B1 chain with V8D, F10I, K53E, K62N, T64A, K90E, S167R, N178D
B24: AAV-binding protein No. 117 (AVR8g + Leu376Pro) (receptor)
chain: B1 chain with V8D, F10I, K53E, K62N, L67P, K90E, S167R, N178D
B25: AAV-binding protein No. 118 (AVR8g + Glu378Gly) (receptor)
chain: B1 chain with V8D, F10I, K53E, K62N, E69G, K90E, S167R, N178D
B26: AAV-binding protein No. 119 (AVR8g + Phe379Ser) (receptor)
chain: B1 chain with V8D, F10I, K53E, K62N, F70S, K90E, S167R, N178D
B27: AAV-binding protein No. 120 (AVR8g + Lys380Glu) (receptor)
chain: B1 chain with V8D, F10I, K53E, K62N, K71E, K90E, S167R, N178D
B28: AAV-binding protein No. 121 (AVR8g + Val381Ala) (receptor)
chain: B1 chain with V8D, F10I, K53E, K62N, V72A, K90E, S167R, N178D

Experiments:
[1] = target: T1, VLP2 (virus-like particles of AAV2) (AAV2, UniProt P03135 1-735; P03135 1-598; P03135 1-533); test: ELISA on VLP2; binding after pH 3.0 51.1°C 15 min / untreated;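 also: binding of the heat-treated AAV-binding protein to VLP2, expressed as a percentage of the binding of the same protein without heating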
T1 construct: Empty AAV2 capsid; background says about 60 protein molecules, VP1:VP2:VP3 = 1:1:10; Immobilised on the ELISA plate
T1 sequence (P03135 whole entry, chain 1 of 3): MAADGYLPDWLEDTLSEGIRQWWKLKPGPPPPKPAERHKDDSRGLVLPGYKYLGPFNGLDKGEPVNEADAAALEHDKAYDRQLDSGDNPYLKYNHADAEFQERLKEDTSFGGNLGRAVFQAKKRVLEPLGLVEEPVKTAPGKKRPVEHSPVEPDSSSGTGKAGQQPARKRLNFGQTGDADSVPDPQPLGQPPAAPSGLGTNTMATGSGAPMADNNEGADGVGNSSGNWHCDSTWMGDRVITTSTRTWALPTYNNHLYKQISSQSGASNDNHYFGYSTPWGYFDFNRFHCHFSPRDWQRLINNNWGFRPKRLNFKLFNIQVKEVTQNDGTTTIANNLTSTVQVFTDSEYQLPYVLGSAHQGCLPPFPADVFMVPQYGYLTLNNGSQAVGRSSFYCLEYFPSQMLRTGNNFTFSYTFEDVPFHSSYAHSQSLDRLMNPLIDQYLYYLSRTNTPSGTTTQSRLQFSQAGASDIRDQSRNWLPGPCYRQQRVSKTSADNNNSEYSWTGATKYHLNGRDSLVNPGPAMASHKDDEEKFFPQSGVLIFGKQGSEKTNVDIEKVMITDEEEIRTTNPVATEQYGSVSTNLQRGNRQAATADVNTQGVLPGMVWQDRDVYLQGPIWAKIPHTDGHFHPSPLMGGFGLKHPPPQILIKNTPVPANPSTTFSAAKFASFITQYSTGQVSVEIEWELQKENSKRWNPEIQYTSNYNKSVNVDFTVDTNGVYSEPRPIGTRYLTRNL
T1 sequence (P03135 139-735, tags left off, chain 2 of 3): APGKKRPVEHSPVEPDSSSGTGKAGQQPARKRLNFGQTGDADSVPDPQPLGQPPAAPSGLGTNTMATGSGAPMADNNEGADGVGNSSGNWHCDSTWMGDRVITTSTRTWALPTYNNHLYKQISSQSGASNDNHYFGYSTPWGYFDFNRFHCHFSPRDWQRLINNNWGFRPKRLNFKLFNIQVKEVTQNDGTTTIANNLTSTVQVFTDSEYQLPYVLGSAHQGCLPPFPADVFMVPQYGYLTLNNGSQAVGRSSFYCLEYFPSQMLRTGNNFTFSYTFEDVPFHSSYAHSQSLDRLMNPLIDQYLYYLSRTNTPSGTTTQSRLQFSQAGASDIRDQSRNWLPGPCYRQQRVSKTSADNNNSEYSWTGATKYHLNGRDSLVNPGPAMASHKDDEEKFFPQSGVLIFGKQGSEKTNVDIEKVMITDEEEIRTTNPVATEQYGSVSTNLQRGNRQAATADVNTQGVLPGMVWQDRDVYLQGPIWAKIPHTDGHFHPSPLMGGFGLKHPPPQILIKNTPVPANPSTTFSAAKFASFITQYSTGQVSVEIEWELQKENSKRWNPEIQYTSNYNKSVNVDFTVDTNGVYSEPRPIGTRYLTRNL
T1 sequence (P03135 203-735, chain 3 of 3): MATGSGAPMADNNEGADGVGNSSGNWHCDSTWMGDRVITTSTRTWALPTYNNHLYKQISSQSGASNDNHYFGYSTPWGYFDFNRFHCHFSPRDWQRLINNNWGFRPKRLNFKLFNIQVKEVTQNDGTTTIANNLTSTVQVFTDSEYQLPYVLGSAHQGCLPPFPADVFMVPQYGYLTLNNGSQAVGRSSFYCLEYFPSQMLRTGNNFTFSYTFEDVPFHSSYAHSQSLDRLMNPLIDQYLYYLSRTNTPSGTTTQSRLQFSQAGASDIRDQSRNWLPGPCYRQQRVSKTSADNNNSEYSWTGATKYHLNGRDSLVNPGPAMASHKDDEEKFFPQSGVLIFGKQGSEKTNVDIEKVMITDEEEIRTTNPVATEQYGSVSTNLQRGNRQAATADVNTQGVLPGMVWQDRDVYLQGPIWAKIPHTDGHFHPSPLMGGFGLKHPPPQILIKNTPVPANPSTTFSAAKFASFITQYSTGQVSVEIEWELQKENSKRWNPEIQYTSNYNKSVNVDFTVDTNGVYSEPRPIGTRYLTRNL
Procedure: The residual activity was calculated by dividing the binding activity of AAV-binding protein to VLP2 when the heat treatment was performed by the binding activity of AAV-binding protein to VLP2 when the heat treatment was not performed.

[2] = target: T1, VLP2 (virus-like particles of AAV2); test: ELISA on VLP2; binding after pH 10.0 41.2°C 15 min / untreated

| Binder | Residual activity [%] [1] [%] | Residual activity [%] [2] [%] |
| --- | --- | --- |
| B1 | 73.9 | – |
| B2 | 26.1 | – |
| B3 | 80.2 | – |
| B4 | 43.5 | – |
| B5 | 38.8 | – |
| B6 | 43.1 | – |
| B7 | 41.4 | – |
| B8 | 29.4 | – |
| B9 | 31.8 | – |
| B10 | 45.6 | – |
| B11 | 70.4 | – |
| B12 | 49.9 | – |
| B13 | 32.8 | – |
| B14 | 71.9 | – |
| B15 | 32 | – |
| B16 | 48.9 | – |
| B17 | 63.4 | – |
| B18 | 36.4 | – |
| B19 | 34.3 | – |
| B20 | – | 41.4 |
| B21 | – | 91.6 |
| B22 | – | 72.8 |
| B23 | – | 57.8 |
| B24 | – | 76.7 |
| B25 | – | 66.7 |
| B26 | – | 24.3 |
| B27 | – | 59.5 |
| B28 | – | 89.9 |
